Measurements published in paper PMC3901934, “CAS directly interacts with vinculin to control mechanosensing and focal adhesion dynamics” (Cellular and Molecular Life Sciences: CMLS, 2013).

Molecular target: T1, Vin WT GFP (GFP-fused vinculin WT) (UniProt Q64727 1-1066)
T1 sequence (looked up): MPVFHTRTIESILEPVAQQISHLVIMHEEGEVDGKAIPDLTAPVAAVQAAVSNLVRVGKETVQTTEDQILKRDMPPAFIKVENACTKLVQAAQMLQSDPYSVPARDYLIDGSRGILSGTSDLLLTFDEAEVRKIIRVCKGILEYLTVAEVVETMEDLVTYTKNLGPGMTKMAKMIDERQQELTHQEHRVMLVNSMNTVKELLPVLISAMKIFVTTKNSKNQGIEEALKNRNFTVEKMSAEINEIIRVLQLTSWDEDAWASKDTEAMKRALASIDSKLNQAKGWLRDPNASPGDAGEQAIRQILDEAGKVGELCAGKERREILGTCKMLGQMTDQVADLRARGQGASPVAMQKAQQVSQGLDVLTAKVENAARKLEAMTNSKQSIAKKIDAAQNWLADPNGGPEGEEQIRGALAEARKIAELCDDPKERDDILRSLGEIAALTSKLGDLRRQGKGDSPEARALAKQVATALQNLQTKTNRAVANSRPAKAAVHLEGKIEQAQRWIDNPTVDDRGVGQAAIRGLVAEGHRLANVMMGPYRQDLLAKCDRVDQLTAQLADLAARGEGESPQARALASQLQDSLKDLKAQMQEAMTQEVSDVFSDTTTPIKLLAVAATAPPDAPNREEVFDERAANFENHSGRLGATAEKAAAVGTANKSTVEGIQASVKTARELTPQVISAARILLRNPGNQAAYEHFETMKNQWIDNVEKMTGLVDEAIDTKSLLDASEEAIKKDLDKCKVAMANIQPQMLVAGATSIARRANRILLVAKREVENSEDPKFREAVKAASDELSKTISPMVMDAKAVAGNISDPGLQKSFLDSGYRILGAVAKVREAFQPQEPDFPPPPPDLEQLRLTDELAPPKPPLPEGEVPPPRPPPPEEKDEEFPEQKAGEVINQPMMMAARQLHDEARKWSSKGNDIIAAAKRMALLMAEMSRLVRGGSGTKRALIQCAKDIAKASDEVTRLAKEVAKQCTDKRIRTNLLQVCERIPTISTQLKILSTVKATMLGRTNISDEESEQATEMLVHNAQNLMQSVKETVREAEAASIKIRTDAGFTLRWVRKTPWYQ
Experiment: cell-based or functional assay

B1: full-length CAS (in Vin-/- MEFs) (natural protein, mouse (endogenous in MEFs), UniProt Q61140 1-874, looked up)
chain: MTVPNVLAKALYDNVAESPDELSFRKGDIMTVLERDTQGLDGWWLCSLHGRQGIVPGNRLKILVGMYDKKPVGPGPGPPATPPQPQPSLPQGVHAPVPPASQYSPMLPTAYQPQSDNVYLVPTPSKTQQGLYQAPGPNPQFQSPPAKQTSTFSKQTPHHSFPSPATDLYQVPPGPGSPAQDIYQVPPSAGIGHDIYQVPPSLDTRGWEGTKPPAKVVVPTRVGQGYVYEAAQTEQDEYDTPRHLLAPGPQDIYDVPPVRGLLPNQYGQEVYDTPPMAVKGPNGRDPLLDVYDVPPSVEKGLLSSSHHSVYDVPPSVSKDVPDGPLLREETYDVPPAFAKPKPFDPTRHPLILAAPPPDSPAAEDVYDVPPPAPDLYDVPPGLRRPGPGTLYDVPRERVLPPEVADGSVVDDGVYAVPPPAEREAPTDGKRLSASSTGSTRSSQSASSLEVVVPGREPLELEVAVESLARLQQGVSTTVAHLLDLVGSASGPGGWRGTSEPQEPPAQDLKAAVAAVHGAVHELLEFARGAVSNATHTSDRTLHAKLSRQLQKMEDVYQTLVVHGQVLDSGRGSPGFTPEDLDRLVACSRAVPEDAKQLASFLHGNASLLFRRTKAPGPGPEGSSSLHPNPTDKASSIQSRPLPSPPKFTSQDSPDGQYENSEGGWMEDYDYVHLQGKEEFEKTQKELLERGNIMRQGKGQLELQQLKQFERLEQEVSRPIDHDLANWTPAQPLVPGRTGGLGPSDRQLLLFYLEQCEANLTTLTDAVDAFFTAVATNQPPKIFVAHSKFVILSAHKLVFIGDTLSRQAKAADVRSQVTHYSNLLCDLLRGIVATTKAAALQYPSPSAAQDMVDRVKELGHSTQQFRRVLGQLAAA
- fold change of CAS Y410 phosphorylation after 20 % static stretch for 10 min, Vin-/- MEFs re-expressing WT vinculin: 2.4 fold
